These results are taken from article PMC2897852 (PLoS ONE, 2010).

Where a chain is given by its changes, count along the chain named. Names and notes keep the numbering of the source.

In the test the target is T1, His-ClpX (M. tuberculosis ClpX, pRD21) (M. tuberculosis, UniProt P9WPB9 1-426).
T1 construct: also called his-clpXTB; recombinant His-ClpX fusion protein
Briefly: pull-down. Particulars: both partners purified.

T1 sequence (P9WPB9 whole entry, the tested form may be a part): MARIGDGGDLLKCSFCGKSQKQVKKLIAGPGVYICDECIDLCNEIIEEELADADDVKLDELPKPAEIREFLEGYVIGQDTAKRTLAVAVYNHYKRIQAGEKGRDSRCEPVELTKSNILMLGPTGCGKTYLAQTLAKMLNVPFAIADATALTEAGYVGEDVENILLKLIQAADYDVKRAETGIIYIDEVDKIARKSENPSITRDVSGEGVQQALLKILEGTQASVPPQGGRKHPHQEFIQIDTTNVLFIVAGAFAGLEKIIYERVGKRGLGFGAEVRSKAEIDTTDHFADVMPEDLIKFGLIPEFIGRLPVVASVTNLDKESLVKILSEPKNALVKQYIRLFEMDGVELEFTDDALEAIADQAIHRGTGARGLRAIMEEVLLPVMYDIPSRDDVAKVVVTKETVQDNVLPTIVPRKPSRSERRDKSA

B1: tag-free FtsZ (M. tuberculosis FtsZ, polyhistidine tag cleaved with thrombin) (natural protein)
chain: MTPPHNYLAVIKVVGIGGGGVNAVNRMIEQGLKGVEFIAINTDAQALLMSDADVKLDVGRDSTRGLGAGADPEVGRKAAEDAKDEIEELLRGADMVFVTAGEGGGTGTGGAPVVASIARKLGALTVGVVTRPFSFEGKRRSNQAENGIAALRESCDTLIVIPNDRLLQMGDAAVSLMDAFRSADEVLLNGVQGITDLITTPGLINVDFADVKGIMSGAGTALMGIGSARGEGRSLKAAEIAINSPLLEASMEGAQGVLMSIAGGSDLGLFEINEAASLVQDAAHPDANIIFGTVIDDSLGDEVRVTVIAAGFDVSGPGRKPVMGETGGAHRIESAKAGKLTSTLFEPVDAVSVPLHTNGATLSIGGDDDDVDVPPFMRR
notes: also called FtsZTB
In the case of B1, the binding result was “binds”.

B2: FtsZ G103S, tag-free (pRR3) (natural protein)
chain: B1 chain with G103S
In the case of B2, the binding result is on record as “binds”.

B3: FtsZ D210G, tag-free (pRR7) (natural protein)
chain: B1 chain with D210G
As for B3, the binding result was “binds”.
